Legend:
[1] = target: T1, CD74 (invariant chain, Ii) (human, UniProt P04233 1-296); assay: cell binding assay on antigen-positive cells
T1 construct: whole, on cells; Endogenous antigen of human cancer cell lines; measured on the surface only or on surface plus cytoplasm (permeabilized cells)
T1 sequence (looked up): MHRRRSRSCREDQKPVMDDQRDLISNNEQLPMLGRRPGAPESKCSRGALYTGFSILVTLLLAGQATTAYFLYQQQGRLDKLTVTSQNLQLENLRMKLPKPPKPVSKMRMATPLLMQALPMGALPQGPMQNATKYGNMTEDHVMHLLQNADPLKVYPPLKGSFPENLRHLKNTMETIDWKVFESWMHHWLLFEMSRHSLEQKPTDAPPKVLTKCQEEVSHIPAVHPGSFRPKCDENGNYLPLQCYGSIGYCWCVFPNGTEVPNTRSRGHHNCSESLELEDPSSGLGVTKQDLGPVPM

[2] = target: T1, CD74 (invariant chain, Ii); assay: flow cytometry, membrane-only, Capan-1 cells
[3] = target: T1, CD74 (invariant chain, Ii); assay: flow cytometry, membrane-only, A-375 cells
[4] = target: T1, CD74 (invariant chain, Ii); assay: flow cytometry, permeabilized Capan-1 cells
[5] = target: T1, CD74 (invariant chain, Ii); assay: flow cytometry, permeabilized HuH-7 cells
[6] = target: T1, CD74 (invariant chain, Ii); assay: flow cytometry, permeabilized NCI-N87 cells
[7] = target: T1, CD74 (invariant chain, Ii); assay: flow cytometry, membrane-only, Raji cells
[8] = target: T1, CD74 (invariant chain, Ii); assay: flow cytometry, membrane-only, Hep-G2 cells
[9] = target: T1, CD74 (invariant chain, Ii); assay: flow cytometry, membrane-only, Hs746T cells
[10] = target: T1, CD74 (invariant chain, Ii); assay: flow cytometry, permeabilized Hep-G2 cells
[11] = target: T1, CD74 (invariant chain, Ii); assay: flow cytometry, permeabilized Hs746T cells
[12] = target: T1, CD74 (invariant chain, Ii); assay: flow cytometry, permeabilized A-375 cells
[13] = target: T1, CD74 (invariant chain, Ii); assay: flow cytometry, membrane-only, HuH-7 cells
[14] = target: T1, CD74 (invariant chain, Ii); assay: flow cytometry, permeabilized Raji cells
[15] = target: T1, CD74 (invariant chain, Ii); assay: flow cytometry, membrane-only, NCI-N87 cells

B1: Milatuzumab (humanized anti-CD74 antibody, hLL1) (antibody, V domains shown)
VH: QVQLQQSGSELKKPGASVKVSCKASGYTFTNYGVNWIKQAPGQGLQWMGWINPNTGEPTFDDDFKGRFAFSLDTSVSTAYLQISSLKADDTAVYFCSRSRGKNEAWFAYWGQGTLVTVSS
VL: DIQLTQSPLSLPVTLGQPASISCRSSQSLVHRNGNTYLHWFQQRPGQSPRLLIYTVSNRFSGVPDRFSGSGSGTDFTLKISRVEAEDVGVYFCSQSSHVPPTFGAGTRLEIK
[1]
  Kd: 0.77 nM
[2]
  MFI Ratio hLL1:bkgd (surface): 1.8
[3]
  MFI Ratio hLL1:bkgd (surface): 5.3
[4]
  MFI Ratio hLL1:bkgd (surface and cytoplasmic): 49.6
[5]
  MFI Ratio hLL1:bkgd (surface and cytoplasmic): 28.5
[6]
  MFI Ratio hLL1:bkgd (surface and cytoplasmic): 36.7
[7]
  MFI Ratio hLL1:bkgd (surface): 19.6
[8]
  MFI Ratio hLL1:bkgd (surface): 1.5
[9]
  MFI Ratio hLL1:bkgd (surface): 2.1
[10]
  MFI Ratio hLL1:bkgd (surface and cytoplasmic): 31.2
[11]
  MFI Ratio hLL1:bkgd (surface and cytoplasmic): 28.8
[12]
  MFI Ratio hLL1:bkgd (surface and cytoplasmic): 30.8
[13]
  MFI Ratio hLL1:bkgd (surface): 1.6
[14]
  MFI Ratio hLL1:bkgd (surface and cytoplasmic): 28.6
[15]
  MFI Ratio hLL1:bkgd (surface): 1.3

From patent US20160032004A1 (published 2016)
